Data on 4 molecules can be found in paper PMC4432651, “Dynamic interplay between catalytic and lectin domains of GalNAc-transferases modulates protein O-glycosylation” (Nature Communications, 2015).

Where no end group is shown, it is not given here.

Series [1] deals with the molecule itself. The series can be described thus: SAXS; solution scattering with ensemble analysis (EOM), monomer and dimer pools; enzyme without ligands (2.5, 5.0 and 10.0 mg/ml) or with UDP or UDP-GalNAc.
In series [2] the target is T1, polypeptide N-acetylgalactosaminyltransferase 2 (GalNAc-T2), K75-Q571 (human, UniProt Q10471 75-571).
T1 construct: GalNAc-T2 (polypeptide N-acetylgalactosaminyltransferase 2), residues K75-Q571: catalytic domain, flexible linker and lectin domain; Theoretical MW 56.7 kDa (D1:p10); source: expression plasmid pPICZαAgalnact2 (K75-Q571)
T1 sequence (Q10471 75-571): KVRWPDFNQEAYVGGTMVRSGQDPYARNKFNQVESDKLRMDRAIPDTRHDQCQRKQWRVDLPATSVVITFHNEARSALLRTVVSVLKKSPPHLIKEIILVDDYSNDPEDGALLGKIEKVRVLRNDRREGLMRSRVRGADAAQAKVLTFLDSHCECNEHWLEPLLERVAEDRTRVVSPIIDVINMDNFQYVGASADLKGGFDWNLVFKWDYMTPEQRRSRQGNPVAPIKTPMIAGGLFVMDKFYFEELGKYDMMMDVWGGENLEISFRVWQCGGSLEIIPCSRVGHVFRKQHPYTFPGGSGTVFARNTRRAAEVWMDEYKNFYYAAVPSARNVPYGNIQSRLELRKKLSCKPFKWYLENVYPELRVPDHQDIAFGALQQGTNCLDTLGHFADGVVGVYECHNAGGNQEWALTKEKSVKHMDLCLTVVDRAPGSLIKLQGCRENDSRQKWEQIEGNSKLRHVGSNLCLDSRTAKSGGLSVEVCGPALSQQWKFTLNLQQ
The series can be described thus: other fluorescence titration; tryptophan fluorescence quenching of GalNAc-T2 (1 µM) by peptides at 1-500 µM; 25 mM Tris, 150 mM NaCl, pH 7.5, 25 °C; no UDP/Mn2+; single binding site model. As to conditions: both partners purified.

For series [3], the target named is T1, polypeptide …. The series can be described thus: other fluorescence titration; tryptophan fluorescence quenching of GalNAc-T2 (1 µM) by peptides at 1-500 µM; 25 mM Tris, 150 mM NaCl, pH 7.5, 25 °C; with 400 µM UDP and 1 mM MnCl2; single binding site model. The note with it: both partners purified.

B1: polypeptide N-acetylgalactosaminyltransferase 2 (GalNAc-T2), K75-Q571 (enzyme)
chain: not shown
notes: GalNAc-T2, residues K75-Q571, catalytic domain, flexible linker and lectin domain; Monomers and dimers coexist in solution by SAXS; also called wild-type (WT) enzyme
On to B1, for which, in series [1], the “stoichiometry N” value came to 2.

B2: MUC5AC-3-13 diglycosylated peptide (peptide)
peptide: GTT(GalNAc)PSPVPTTSTT(GalNAc)SA
modifications: not fully specified (C-terminus)
notes: Made on Rink amide resin, so the C-terminus is probably an amide (surmised); source: synthetic peptide (Fmoc solid-phase synthesis on Rink Amide MBHA resin, HPLC purified)
Regarding B2, the dissociation constant (Kd) was determined as 11 ± 4 µM in series [2] and 17 ± 9 µM in series [3].

B3: MUC5AC peptide (naked) (peptide)
peptide: GTTPSPVPTTSTTSA
notes: peptide named after mucin MUC5AC; Made on Rink amide resin, so the C-terminus is probably an amide (surmised); source: synthetic peptide (Fmoc solid-phase synthesis on Rink Amide MBHA resin, HPLC purified)
For B3, the results for the Kd in series [2] and in series [3] were 7 ± 3 µM and 31 ± 16 µM, respectively.

B4: MUC5AC-13 glycopeptide (peptide)
peptide: GTTPSPVPTTSTT(GalNAc)SA
notes: as for B2
As to B4, the Kd in series [2] amounted to 8 ± 3 µM; in series [3] it was 5 ± 1 µM.

What is called stoichiometry N is the number of molecules, sites or subunits per partner or assembly. The Kd is a measure of binding affinity in units of concentration. High values mean weaker binding, low ones tighter binding.
